Reference: patent US20100036095A1

Assays:
[1] = molecular target: human CD59 20A23A (human) (UniProt P13987); assay: flow cytometry on CHO cells expressing the CD59 form
human CD59 F23G (human) = human CD59 F23G (human) (UniProt P13987); assay: as above
[2] = molecular target: wild type human CD59, epitope-tagged, GPI-anchored on CHO cells (human) (UniProt P13987); assay: as above
human CD59 D24A (human) = human CD59 D24A (human) (UniProt P13987); assay: as above
human CD59 F42A (human) = human CD59 F42A (human) (UniProt P13987); assay: as above
human CD59 F42A (human), sequence (P13987 26-102 F67A): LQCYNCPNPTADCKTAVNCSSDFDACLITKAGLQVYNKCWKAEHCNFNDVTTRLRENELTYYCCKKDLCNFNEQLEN

human CD59 T52A (human) = human CD59 T52A (human) (UniProt P13987); assay: as above
human CD59 T52A (human), sequence (P13987 26-102, stated change not applied): as the sequence (P13987 26-102 F67A) above, with A42F counted along it

human CD59 H44A (human) = human CD59 H44A (human) (UniProt P13987); assay: as above
human CD59 H44A (human), sequence (P13987 26-102 H69A): as the sequence (P13987 26-102 F67A) above, with A42F, H44A counted along it

human CD59 W40A (human) = human CD59 W40A (human) (UniProt P13987); assay: as above
human CD59 W40A (human), sequence (P13987 26-102 W65A): as the sequence (P13987 26-102 F67A) above, with W40A, A42F counted along it

[3] = molecular target: human CD59 51A plus 20-23A (human) (UniProt P13987); assay: as above
human CD59 51A plus 20-23A (human), sequence (P13987 other isoform, or with tags, fused parts or gaps): as the sequence (P13987 26-102 F67A) above, with S20A, S21A, D22A, F23A, A42F, T51A counted along it

human CD59 9R (human) = human CD59 9R (human) (UniProt P13987); assay: as above
human CD59 9R (human), sequence (P13987 26-102): as the sequence (P13987 26-102 F67A) above, with A42F counted along it

human CD59 5R (human) = human CD59 5R (human) (UniProt P13987); assay: as above
human CD59 5R (human), sequence (P13987 26-102): as the sequence (P13987 26-102 F67A) above, with A42F counted along it

[4] = molecular target: C8/C9 (complement components C8 and C9 of normal human serum, in the assembling membrane attack complex) (human) (UniProt P07357); assay: cell-based or functional assay
C8/C9 (complement components C8 and C9 of normal human serum, in the assembling membrane attack complex) (human), sequence (P07357 31-584 limits assumed, chain 1 of 4): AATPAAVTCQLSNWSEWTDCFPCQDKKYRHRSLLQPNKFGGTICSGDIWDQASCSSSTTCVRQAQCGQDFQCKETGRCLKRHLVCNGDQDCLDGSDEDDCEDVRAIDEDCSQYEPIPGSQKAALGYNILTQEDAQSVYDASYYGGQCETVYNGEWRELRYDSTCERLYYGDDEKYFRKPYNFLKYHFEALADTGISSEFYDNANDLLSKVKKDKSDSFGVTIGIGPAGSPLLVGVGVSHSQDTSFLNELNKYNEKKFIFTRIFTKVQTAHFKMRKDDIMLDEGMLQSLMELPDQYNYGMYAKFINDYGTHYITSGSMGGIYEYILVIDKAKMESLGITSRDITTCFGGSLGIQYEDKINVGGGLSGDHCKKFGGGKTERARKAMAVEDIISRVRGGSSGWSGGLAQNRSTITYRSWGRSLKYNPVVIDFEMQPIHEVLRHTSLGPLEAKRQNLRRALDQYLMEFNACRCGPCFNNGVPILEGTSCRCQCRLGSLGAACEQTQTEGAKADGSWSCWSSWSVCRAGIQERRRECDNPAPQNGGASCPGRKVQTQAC
C8/C9 (complement components C8 and C9 of normal human serum, in the assembling membrane attack complex) (human), sequence (P07358 55-591 limits assumed, chain 2 of 4, further chain): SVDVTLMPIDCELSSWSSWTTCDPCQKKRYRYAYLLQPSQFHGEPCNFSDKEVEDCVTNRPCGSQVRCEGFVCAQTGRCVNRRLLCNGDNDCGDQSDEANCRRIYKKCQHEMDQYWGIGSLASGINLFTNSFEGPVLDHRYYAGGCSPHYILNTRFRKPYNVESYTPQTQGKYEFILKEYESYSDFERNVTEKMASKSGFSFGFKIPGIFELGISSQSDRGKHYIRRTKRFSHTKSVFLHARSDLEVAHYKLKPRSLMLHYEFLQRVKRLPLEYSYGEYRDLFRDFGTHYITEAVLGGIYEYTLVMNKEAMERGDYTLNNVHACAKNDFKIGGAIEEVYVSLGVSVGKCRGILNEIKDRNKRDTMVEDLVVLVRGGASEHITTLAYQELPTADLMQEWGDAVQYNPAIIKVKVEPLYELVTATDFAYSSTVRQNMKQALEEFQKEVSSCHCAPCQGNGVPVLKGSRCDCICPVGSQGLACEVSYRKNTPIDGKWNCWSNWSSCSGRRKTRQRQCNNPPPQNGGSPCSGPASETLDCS
C8/C9 (complement components C8 and C9 of normal human serum, in the assembling membrane attack complex) (human), sequence (P07360 21-202 limits assumed, chain 3 of 4, further chain): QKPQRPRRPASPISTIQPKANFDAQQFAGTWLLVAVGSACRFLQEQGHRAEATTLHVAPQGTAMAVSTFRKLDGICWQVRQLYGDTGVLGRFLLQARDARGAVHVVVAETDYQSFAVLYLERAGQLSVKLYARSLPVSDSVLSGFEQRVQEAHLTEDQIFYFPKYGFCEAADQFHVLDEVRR
C8/C9 (complement components C8 and C9 of normal human serum, in the assembling membrane attack complex) (human), sequence (P02748 22-559 limits assumed, chain 4 of 4, further chain): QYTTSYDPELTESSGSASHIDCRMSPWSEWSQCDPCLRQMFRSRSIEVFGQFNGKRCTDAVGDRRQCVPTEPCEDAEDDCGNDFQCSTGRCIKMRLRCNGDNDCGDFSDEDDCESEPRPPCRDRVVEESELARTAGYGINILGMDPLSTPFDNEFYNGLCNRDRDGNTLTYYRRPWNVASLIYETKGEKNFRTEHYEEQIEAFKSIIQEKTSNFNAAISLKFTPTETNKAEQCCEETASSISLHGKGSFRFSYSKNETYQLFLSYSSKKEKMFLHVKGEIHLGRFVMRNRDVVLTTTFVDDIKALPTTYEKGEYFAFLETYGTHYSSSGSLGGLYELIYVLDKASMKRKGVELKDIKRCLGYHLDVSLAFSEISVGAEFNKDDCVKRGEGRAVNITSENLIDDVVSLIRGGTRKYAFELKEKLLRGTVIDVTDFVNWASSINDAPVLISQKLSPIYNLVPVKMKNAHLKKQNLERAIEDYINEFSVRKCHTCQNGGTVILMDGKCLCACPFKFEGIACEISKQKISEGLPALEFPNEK

wild type human CD59, epitope-tagged, GPI-anchored on CHO cells (human), sequence (P13987 26-102 limits assumed): as the sequence (P13987 26-102 F67A) above, with A42F counted along it
human CD59 D24A (human), sequence (P13987 26-102 D49A): as the sequence (P13987 26-102 F67A) above, with D24A, A42F counted along it
human CD59 20A23A (human), sequence (P13987 other isoform, or with tags, fused parts or gaps): as the sequence (P13987 26-102 F67A) above, with S20A, F23A, A42F counted along it
human CD59 F23G (human), sequence (P13987 26-102 F48G): as the sequence (P13987 26-102 F67A) above, with F23G, A42F counted along it

percent of relative mean fluorescence compared to wt CD59 [1] [%]	percent of relative mean fluorescence compared to wt CD59 (human CD59 F23G (human)) [%]	percent of relative mean fluorescence compared to wt CD59 [2] [%]	percent of relative mean fluorescence compared to wt CD59 (human CD59 D24A (human)) [%]	percent of relative mean fluorescence compared to wt CD59 (human CD59 F42A (human)) [%]	percent of relative mean fluorescence compared to wt CD59 (human CD59 T52A (human)) [%]	percent of relative mean fluorescence compared to wt CD59 (human CD59 H44A (human)) [%]	percent of relative mean fluorescence compared to wt CD59 (human CD59 W40A (human)) [%]	percent of relative mean fluorescence compared to wt CD59 [3] [%]	percent of relative mean fluorescence compared to wt CD59 (human CD59 9R (human)) [%]	percent of relative mean fluorescence compared to wt CD59 (human CD59 5R (human)) [%]	increase in inhibitory activity compared to the wt protein [4] [% increase]	inhibitory activity relative to the single mutant T29A [4]	Substance
98.1	98.8	100	3.5	99.7	99.2	88.8	6.2	92.3	–	–	–	–	anti-CD59 mAb MEM43 (antibody)
97.7	98.9	100	1.9	99.9	99.2	85.9	0.7	98.1	98.4	8.2	–	–	anti-CD59 mAb MEM43.5 (antibody)
–	–	–	–	–	–	–	–	–	–	–	165	2 fold of T29A	human CD59 51A20A (from UniProt P13987 26-102)
35.7	99.3	100	5	99.8	99.3	58.7	1	18.3	100	47.9	–	–	anti-CD59 mAb YTH53.1 (antibody)
